# Literature values as cited in patent US12377186B2, “Antimicrobial biopolymer compositions, methods of synthesis, and applications of use” (ARIZONA BOARD OF REGENTS ON BEHALF OF THE UNIVERSITY OF …, priority 2018, dated 2025).
# Conditions: cited from earlier work
substance,measurement,setting,value
[(VPGAG)2 (VPGYG)1 (VPGAG)2]36 [ELP (A2Y1A2)36],"Tt, experimental of ELP (Tyr)","180 ELP pentapeptide repeats, according to previous research by Ingrole et al.",25 °C
same,change in Tt when fused to a hydrophilic peptide,relative to the smaller ELP(A2Y1A2)24,less change in Tt
